In EP4703387A1 (University of Tsukuba, dated 2026):
Residue numbers refer to the chain shown, from its start. Numbers in names are those of the source.

Key:
[1] = target: T1, human CD300C (human, UniProt Q08708 21-224); assay: flow cytometry on BW/huCD300C cells, purified antibody
T1 construct: whole, on cells; also called huCD300C; BW/huCD300C
T1 sequence (looked up): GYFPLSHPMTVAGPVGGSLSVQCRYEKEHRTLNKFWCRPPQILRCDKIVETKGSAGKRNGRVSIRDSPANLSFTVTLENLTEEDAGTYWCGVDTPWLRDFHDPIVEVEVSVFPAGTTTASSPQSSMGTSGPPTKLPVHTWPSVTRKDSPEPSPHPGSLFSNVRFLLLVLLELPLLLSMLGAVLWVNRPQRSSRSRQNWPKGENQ

[2] = target: T2, human CD300A-Q (human, UniProt Q9UGN4 18-299); assay: flow cytometry on BW/huCD300A-Q cells, purified antibody, 0.5 µg per 1 × 10^5 cells
T2 construct: whole, on cells; also called huCD300A-Q; human CD300A^Gln111
T2 sequence (looked up): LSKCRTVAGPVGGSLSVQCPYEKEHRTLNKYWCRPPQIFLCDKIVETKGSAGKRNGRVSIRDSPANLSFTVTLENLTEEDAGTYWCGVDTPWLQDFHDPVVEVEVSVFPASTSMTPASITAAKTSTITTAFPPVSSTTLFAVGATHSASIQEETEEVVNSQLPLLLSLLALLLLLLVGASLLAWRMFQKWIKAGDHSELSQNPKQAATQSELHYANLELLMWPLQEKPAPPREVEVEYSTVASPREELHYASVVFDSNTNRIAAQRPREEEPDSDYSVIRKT

[3] = target: T2, human CD300A-Q; assay: flow cytometry analysis using CD300A-Q
[4] = target: T2, human CD300A-Q; assay: assay not named for Hu NO. 1T on CD300A-Q (CD300A-Q flow cytometry is listed for Hu NO. 1R, 1U and 1W)
[5] = target: T2, human CD300A-Q; assay: assay not named for Hu NO. 1V on CD300A-Q (CD300A-Q flow cytometry is listed for Hu NO. 1R, 1U and 1W)
[6] = target: T2, human CD300A-Q; assay: assay not given; reference antibody in the CD300A-Q flow cytometry comparison of paragraph 258
[7] = target: T1, human CD300C; assay: flow cytometry on BW/huCD300C cells, biotinylated antibody with SA-APC
[8] = target: T3, human CD300A-R (as used in the BLI measurement) (human, UniProt Q9UGN4 18-180, limits assumed); assay: biolayer interferometry (BLI); format not described
T3 sequence (looked up): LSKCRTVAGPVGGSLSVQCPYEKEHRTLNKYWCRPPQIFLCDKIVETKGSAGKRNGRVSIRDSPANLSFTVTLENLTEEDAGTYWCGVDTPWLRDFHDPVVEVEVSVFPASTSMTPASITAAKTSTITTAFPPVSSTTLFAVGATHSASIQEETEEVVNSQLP

B1: Antibody NO. 1 (antibody, V domains shown)
VH: EVQLVESGGDLVKPGGSLKLSCAASGFTFSSYGMSWVRQTPDKRLEWVATISSGGSYTYYPDSVKGRFTISRDNAKNTLYLQMSSLKSEDTAMYYCARHGDYGYPWFAYWGQGTLVTVSA
VL: QIVLTQSPAIMSASLGERVTMTCTASSSVSSSYLHWYQQKPGSSPKLWIYSTSNLASGVPARFSGSGSGTSYSLTISSMEAEDAATYYCHQYHRSHTFGGGTKLEIK
notes: Mouse monoclonal antibody from a hybridoma, purified from ascites; also called mouse Antibody NO
**Q.** Does B1 bind [1]?
**A.** no binding (tested: 0.5 µg antibody per 1 × 10^5 cells)

**Q.** Does B1 bind [2]?
**A.** binds

B2: Antibody NO. 3 (antibody, V domains shown)
VH: QIQLVQSGPELKKPGETVKISCKASGYTFTHYGLNWVKQAPGKGLQWMGWIHTYTGESTYADDFKGRSAFSLETSASTAYLQINNLKNEDTATYFCARGGKDALDYWGQGTSVTVSS
VL: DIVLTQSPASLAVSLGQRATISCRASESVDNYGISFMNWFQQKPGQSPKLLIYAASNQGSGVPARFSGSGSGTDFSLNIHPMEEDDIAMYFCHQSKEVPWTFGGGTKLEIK
notes: Mouse monoclonal antibody from a hybridoma
**Q.** Does B2 bind [1]?
**A.** no binding (tested: 0.5 µg antibody per 1 × 10^5 cells)

**Q.** Does B2 bind [2]?
**A.** binds

B3: HuNO.1R (antibody, V domains shown)
VH: EVQLVESGGGLVQPGGSLRLSCAASGFTFSSYGMSWVRQAPGKRLEWVATISSGGSYTYYPDSVKGRFTISRDNAKNSLYLQMNSLRAEDTAVYYCARHGDYGYPWFAYWGQGTMVTVSS
VL: QIQMTQSPSSLSASVGDRVTMTCTASSSVSSSYLHWYQQKPGKAPKLWIYSTSNLASGVPSRFSGSGSGTDYTLTISSLQPEDFATYYCHQYHRSHTFGGGTKVEIK
notes: Transient HEK293 supernatant; Human IgG/kappa constant regions
**Q.** Does B3 bind [3]?
**A.** binds

B4: HuNO.1T (antibody, V domains shown)
VH: B3 VH with R19K
VL: B3 VL
notes: as for B3
**Q.** Does B4 bind [4]?
**A.** binds

B5: HuNO.1V (antibody, V domains shown)
VH: B3 VH with V93M
VL: B3 VL
notes: Position 89 may be a Kabat number rather than a count on the entry; Transient HEK293 supernatant; Human IgG/kappa constant regions
**Q.** Does B5 bind [5]?
**A.** binds

B6: HuNO.1W (antibody, V domains shown)
VH: B3 VH with G10D
VL: B3 VL
notes: as for B3
**Q.** Does B6 bind [3]?
**A.** binds

B7: chimeric NO. 1 IgG1/kappa antibody (Ch NO. 1) (antibody, V domains shown)
VH: B1 VH
VL: B1 VL
notes: Mouse NO; 1 VH and VL on human γ-1 and κ constant regions; The γ-1 chain carries L234A/L235A; also called mouse-human chimeric NO; 1 IgG1/kappa antibody
**Q.** Does B7 bind [6]?
**A.** binds

B8: HuNO.1U (antibody, human IgG1, kappa, L234A L235A, V domains shown)
VH: B3 VH with G42D
VL: QIQMTQSPSSLSASVGDRVTMTCTASSSVSSSYLHWYQQKPGKAPKLWIYSTSNLASGVPSRFSGSGSGTDYTLTISSLQPEDFATYYCHQYHRSHTFGGGTKVEIKR
notes: VH = Hu NO; also called Humanized NO; 1 antibody
**Q.** Does B8 bind [7]?
**A.** no binding (tested: 0.5 µg antibody per 1 × 10^5 cells)

**Q.** And the Kd [8]?
**A.** 22 nM
